Assay results published in publication PMC10285643 (iScience, 2023).

Target: extracellular domain of Toll-like receptor 4 (TLR4) (UniProt O00206 24-631)
Test: ITC

Chain of extracellular domain of Toll-like receptor 4 (TLR4) (O00206 24-631): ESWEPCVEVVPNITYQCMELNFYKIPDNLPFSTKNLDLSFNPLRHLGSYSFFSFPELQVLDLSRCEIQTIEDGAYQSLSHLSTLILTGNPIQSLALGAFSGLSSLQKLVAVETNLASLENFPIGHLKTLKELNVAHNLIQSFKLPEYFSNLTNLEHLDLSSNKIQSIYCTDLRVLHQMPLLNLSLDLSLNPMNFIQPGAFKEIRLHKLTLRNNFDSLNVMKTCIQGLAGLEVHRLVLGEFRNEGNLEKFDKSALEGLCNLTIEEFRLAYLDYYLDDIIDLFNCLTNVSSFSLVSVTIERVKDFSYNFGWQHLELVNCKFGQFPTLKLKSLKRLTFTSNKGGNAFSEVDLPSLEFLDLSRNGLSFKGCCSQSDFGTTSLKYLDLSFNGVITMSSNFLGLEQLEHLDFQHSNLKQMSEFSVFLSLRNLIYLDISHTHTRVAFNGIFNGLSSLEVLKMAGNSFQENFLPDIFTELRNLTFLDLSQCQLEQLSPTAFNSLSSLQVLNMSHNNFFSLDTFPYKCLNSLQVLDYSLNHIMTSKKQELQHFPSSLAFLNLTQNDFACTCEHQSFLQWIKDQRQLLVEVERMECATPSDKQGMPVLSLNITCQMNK

- Kd: 3.72 ± 1.98 µM
B1: Cold-inducible RNA binding protein (CIRP) (natural protein, UniProt Q14011 1-172, looked up)
chain: MASDEGKLFVGGLSFDTNEQSLEQVFSKYGQISEVVVVKDRETQRSRGFGFVTFENIDDAKDAMMAMNGKSVDGRQIRVDQAGKSSDNRSRGYRGGSAGGRGFFRGGRGRGRGFSRGGGDRGYGGNRFESRSGGYGGSRDYYSSRSQSGGYSDRSSGGSYRDSYDSYATHNE
modifications: 15N-labeled (in the NMR titration)
